The DeepSol protein solubility set

Test: soluble on expression in E. coli; label from the status in PepcDB or PDB records
In the case of “MVQESTMICVDNSEYMRNGDFQPTRLQSQQDAVNLVTQCKLRANPENAVGILSMANSVQVLSSLSTEQGRLMMKNHSIEPFGKCNFIAGIKIAHLALKHRQNRNHKMRVVLFIGSPLEEIEMNELVKIAKKMKKEKVLCDVIMFGENESDGHEKFSTFVDTLNGKEGSGSSLIVVPQGSSLTDALLQSSVCKNEDGQAAFGGGGNGMDNAFGMDVENDPDLALALRVSMEEERARQAAAAAANGGAADSGADAEVAAAAAAVPLEEMDMGAMTEEQQLEWALRLSMQENAPAEQPQVQHEQMDVDGAPAVGGDNLDDLMNNPELLQQIVDDLPAANAEKDDDKEKK”, the “soluble on expression in E. coli” value is reported as “not soluble”.
For “MVQQKVEVRLKTGLQARPAALFVQEANRFTSDVFLEKDGKKVNAKSIMGLMSLAVSTGTEVTLIAQGEDEQEALEKLAAYVQEEVLQ”, the “soluble on expression in E. coli” value was “soluble”.
With “MVQTYRSPVRIYKHPFEIVMAAYEMRFPTCPQIPIFVGSEVTYEYKSVDGAEWVIDRKCQLNVEAPYLVKKIAGVDYVYFSQKNSLDRRKRTLDIEATNISFSSRINVKENCTYYVHAENENWTCFEQSASLDVKNFFGLESAVEKLAVRQYGANLAKGKEILEFFIEELLKKTTHIERFRDADQEETTSATDSAIEMKELSDGDAVLVNDRPPMLAAETDEMRTARATASFDDACRVCMIIYCRIFIIISSYFFNFPADSKLEAEYIRRFLGQLSPLEESRLCEIKYSLQAHHKGKLPNDAHLLRFLRARDFDVAKAKDMVHASIIWRKQHNVDKILEEWTRPTVIKQYFPGCWHNSDKAGRPMYILRFGQLDTKGMLRSCGVENLVKLTLSICEDGLQRAAEATRKLGTPISSWSLVVDLDGLSMRHLWRPGVQCLLKIIEIVEANYPETMGQVLVVRAPRVFPVLWTLISPFIDEKTRKKFMVSGGSGGDLKEELRKHIEEKFIPDFLGGSCLTTNCGLGGHVPKSMYLPVEEQEGASSSEDPLHSTYTSTATWRGYPVEVVIPIETAGCVLTWDFDVLKNDCEFSLYFSTEKIEQPAVRDGAQSPTTILNPVEMVSAAIGGASHQHPDLQCAPELKIGTPQLRLEEKAVVFQEGDSMQGSHYCSRAGTYIMQWRVPETAAGHSSTFDFGSHKCRLIYYYEILNSENFRGSVASLESCRSSSFSSIAPPTPPTPGTPRNP” the “soluble on expression in E. coli” value was “not soluble”.
With “MVRANKRNEALRIESALLNKIAMLGTEKTAEAVGVDKSQISRWKRDWIPKFSMLLAVLEWGVVDDDMARLARQVAAILTNKKRPAATERSEQIQMEF” the “soluble on expression in E. coli” value was “soluble”.
With “MVRFFIGKEMLFDSHLHLDQLSDENIQQTLAHSKIIGMLAVSTNLNSAKKLLNLKQTYPKKLYIAAGFHPEQQLPSLEEQKKLFQWIDEHHSSISAIGEVGLPHYSKRENPNLDYVPYIELLERFILIAKKWDLPLNLHIVHNDVEIALELLQKHNIQRAHFHWFKTDEKSFQKFFSTPYFASLTPDILWNSKTQYVAQHLSLNRLMIETDSPWQHEGFERAGISEQLLAVLQKLAELKSLPLHSVQKQILLNTQQFYRLLEHHHHHH” the “soluble on expression in E. coli” value was “not soluble”.
With “MVRILPIILSALSSKLVASTILHSSIHSVPSGGEIISAEDLKELEISGNSICVDNRCYPKIFEPRHDWQPILPGQELPGGLDIRINMDTGLKEAKLNDEKNVGDNGSHELIVSSEDMKASPGDYEFSSDFKEMRNIIDSNPTLSSQDIARLEDSFDRIMEFAHDYKHGYKIITHEFALLANLSLNENLPLTLRELSTRVITSCLRNNPPVVEFINESFPNFKSKIMAALSNLNDSNHRSSNILIKRYLSILNELPVTSEDLPIYSTVVLQNVYERNNKDKQLQIKVLELISKILKADMYENDDTNLILFKRNAENWSSNLQEWANEFQEMVQNKSIDELHTRTFFDTLYNLKKIFKSDITINKGFLNWLAQQCKARQSNLDNGLQERDTEQDSFDKKLIDSRHLIFGNPMAHRIKNFRDEL” the “soluble on expression in E. coli” value was “soluble”.
With “MVRKGCNSLVRAEKILTHIAWVGMASYMELLNKFQYPKSSLLNLLNVMVDCGFLIKNKNGYYSLGIKNYELGCQALHRQNIFEVTKRPMQELSLKSGLVCHLGAMESISAIYLDKIESPDSVPTSKSWIGKKLELHITALGKALLAWKTREELDYFLEALTLTPHTRNTFTDKKLFLEELQKTRLRGWAIDNEESTYGAVCLSMPVFNMYNRVNYAISLSGDPVVYSGNKIDSYLELLRKCAEQISYGLGYRNENEHLRKGN” the “soluble on expression in E. coli” value was “soluble”.
For “MVRKVLIIGGGFSGMAAAIQMRKAGIDVDLVEIDPNWRPEGAGITVNGPTLRALETIGVFDEFARRGFTSSGVDLFTPTGQKIGEIPTPKVAGSDVPGGGGIMRPELGRILADATRGSDVSVRVGCTYTAIEQTGDQVTVAFTDGTTDTYDLVVAADGVHSKTRERFFPEVKPPQYIGQGVWRTVLPRPAEIVRPRMWLGGTVKVGVNPVSQTHLYMFITEARPEKTNLDPATFPDLVTSMLKSFPDPIVQSLIPHVFAAEAAIDYRPLANLLVPAPWNRGRVILIGDTVAATTPHLASGAGIGIESGIILAEELAKAATLQDAFDGFHARRWERCRMVIENSERLCRIEMENGDKAEHARIMRESVMALTQPILEHHHHHH”, the “soluble on expression in E. coli” value was “soluble”.
For “MVRNLVIDITKKPTQNIPPTNEIIEEAITELNVDELLDRLFEKDESGEVITPSRIAKMLEEKAFEIYKEYEKQVREAYLSAGYSREKLEQSFQQARFSRGGKAFEIIFTKLLNKFGIRYEHDRVIKIYDYITEGEKPAFIIPSVRTFLNDPSSAILITVKRKVRERWREAVGEAQILRNKFGDEINFWFVGFDEEFTIYSAIAMLDNGIDRVYVIDGRYDSLIEEIKRISDPNFNEDKYIQKIRRFSDIFDDIIQFLNKHGNKKRGKQLTLV”, the “soluble on expression in E. coli” value was “soluble”.
With “MVRPPPFEFRPARPPGTRALQLEVITNIIWENAPMADLDALRSRFAHALAGATAPGATAGAGPGSGPDPAPYADNLLARWQEPQRRYHTLAHLTAVLDRVDVLAEHADDVAVVRLAAWFHDAVYQPDRSENEERSARLAERALPEAGVPAAKTAEVARLVRLTVTHAPAGDDRDGQVLCDADLAVLASPPSAYAAYTAAVREEYHFVPNEAFREGRAAILRQLLDLPSLFHTPYGRQEWEATARHNLTGELEMLSLPDTPDVLEHHHHHH” the “soluble on expression in E. coli” value was “not soluble”.
With “MVRTINLYYNNRTVQAIVELKNKPARWHKAKKVQLTPGQTEVKIDLPLPIVASNLMIEFADFYENYQASTETLQCPRCSASVPANPGVCGNCGENVYQCHKCRSINYDEKDPFLCNACGFCKYARFDFMLYAKPCCAVDPIENEEDRKKAVSNINTLLDKADRVYHQLMGHRPQLENLLCKVNEAAPEKPQVVPRCKGHLDKGLGLDQKTAS” the “soluble on expression in E. coli” value was “not soluble”.
In the case of “MVRTITVASGKGGTGKTTITANLGVALAQLGHDVTIVDADITMANLELILGMEGLPVTLQNVLAGEARIDEAIYVGPGGVKVVPAGVSLEGLRKANPEKLEDVLTQIMESTDILLLDAPAGLERSAVIAIAAAQELLLVVNPEISSITDGLKTKIVAERLGTKVLGVVVNRITTLGIEMAKNEIEAILEAKVIGLIPEDPEVRRAAAYGKPVVLRSPNSPAARAIVELANYIAGGAKKKVPAEVKEKKKEGALAKMLRIFRRR”, the “soluble on expression in E. coli” value is reported as “soluble”.
In the case of “MVRVVRHSRGTCNRGLYEVRELARNRTLQQWGVEDSAELYGIRNWGAGYFDVAQNGDVVVYPFGHNRGPAVSIPEIIGGMRERGYDMPVLLRIENILDSQITSLHTSFRNAIGSLGYKGEYRGIFPIKVNQQQQVVEKIAQFGSHYHHGLEVGSKAELIAAVSQLRDREACLVCNGYKDEEFIDLGLHAVRLGFMCIFVLEMPGELDLILERGEALGVKPIIGVRAKLSVKAGGHWTDSGGERSTFGLTTSQIVDVVDRLKEKGMLDCFKLLHYHLGSQVPNIRDIRAAVMEACRIYAGLVQEGAAMGFLDLGGGLAVDYDGSHTNFVSSRNYTLDEYCADIVEAVMTTLDEQNIPHPHIVTESGRATVAYYSMLLFNILDVSRVEIGNLPDALPEDTPEPVRNMREVLAGMTLRNLQECYNDALYYRDAVRQLFLTGQVTLRQRTLSERLFWAIMKRIAQEKQKLKHVPKDLAEIDVALADIYYGNFSVFQSLPDSWAIDQLFPVMPVHRLQELPSRQGILSDITCDSDGRIDHFIDPQGMKGTLDLHPLRDGEEYYLGVFLVGAYQETLGDLHNLLGDTNVVSVRVHEDGTYEFVREIRGDSVADILSYVEYDPRRIYEDIRELAERAVREGRITASDRFRVMQAYEDGLRGYTYFERLEHHHHHH”, the “soluble on expression in E. coli” value is reported as “not soluble”.
In the case of “MVSLSDLASYPICRRCAGRIFAMVGTGLTNLERGSMLEFSIKCEKNDPEFNFADPQNCEICHGIFDKFSVFLSLVEDKLKEIEYSTFVVGSVFPKEWIELENKIQEAFGAHGESIKKEFNREFGKYITAKTGKEYRKEDPDITIAVNVEYEFVNVSIKSLFIYGKYRKYRRDMPQTRWIHKKDGDSIESIIGEAALRIAGGKNYYLHGSGREDVDVRMLGNGREFVIEVEAPIMRTFDLSILSETVNRSMKGVEIFDLSFVDRKTVKEIKEEKHSKVYDCIIEGDTDIDKLKLEEACTEMNGKNIYQRTPLRVAQRRSDLIRTRKIERMELVAVEGKEAEIVVQAEAGTYIKELISGDSGRTNPSLSSKYGSQLNVKELDVIKICRGELEHHHHHH”, the “soluble on expression in E. coli” value is reported as “not soluble”.
In the case of “MVSMLLVGRIGKSVGLNGGLRLHLESDFPECLKKGVKVSVAPLNAFSCVSSFKEYIIHSYEHAKNLLFLETIQTPEKAKELTNLGLFMSEAESKKLCVLKEGEFFYCDLVGLSVVEENEILGKVIEIQRISQTDYFLVETTLNLVEKGLAKIFLIPYRDFYIQEILLQDKKITTHNAKTLLENSLEHHHHHH”, the “soluble on expression in E. coli” value is reported as “soluble”.
With “MVSPLKTRCCSPSSQQQASEAREIEQPSTVWELDFYSRPVYGKDNKRIWELIVVDESFLLCHVESVPNDMINSAELRKRVERLLEQVTVKPKVVKFSRMPMFNMISLALKDLGFEVKPSRRTYRLYHVLRDREANIYSKMPGYRSENTLSTSYLYSTERLPDALRGEKFAFCTADYSFLYELQSSDTIPYCDIFNTGDSILLEKELPGIIVYSERADSLASWTAGAEVSFIKFREEELELVLECGINSHYRLAKIAEDHRLVEEAKTFEQMKWHMKGFHFYAIQSLKETSGTSHIKGLWLLNDFMEQ” the “soluble on expression in E. coli” value was “not soluble”.
With “MVSVNENALPLVERMIERAELLNVEVQELENGTTVIDCGVEAAGGFEAGLLFSEVCMGGLATVELTEFEHDGLCLPAVQVTTDHPAVSTLAAQKAGWQVQVGDYFAMGSGPARALALKPKETYEEIDYEDDADVAILCLESSELPDEDVAEHVADECGVDPENLYLLVAPTASIVGSVQVSARVVETGLYKLLEVLEYDVTRVKYATGTAPIAPVADDDGEAMGRTNDCILYGGTVYLYVEGDDELPEVVEELPSEASEDYGKPFMKIFEEADYDFYKIDPGVFAPARVVVNDLSTGKTYTAGEINVDVLKESFSL” the “soluble on expression in E. coli” value was “soluble”.
With “MVTPREPKKRTTRKKKDPNAPKRALSAYMFFANENRDIVRSENPDITFGQVGKKLGEKWKALTPEEKQPYEAKAQADKKRYESEKELYNATLA” the “soluble on expression in E. coli” value was “soluble”.
For “MVTVPEGYEANVIYALGDSINPRVGDWDDNNIPSGPSFQFRSGDCHDGMHYFGLNTSTNRFDETVSAQGLLVMNHEYINQTFLHPKGPTKVDGRRPEDEVIRETNAHGVSVVHIKKDPTTQKVEIVKNSIFNRRITASTVMEFAGAAAGSSLLATRFSPAGRQTRGTHNNCGNGYTPWGTYLTTEENFIGYFQRSGSDEYARTDAEKIALKRYGLGVKKDEPYLYEKDEKGAPKKDKDGKIIYLKDKNGELIPNVDEQGRQIYLGTSSRYGWETAIGQVESQDLYDRWNADVKAAQATQDYRNGPNTFGWMVEIDPFDGRQNPVKRTSLGRFAHEDSACRAVVGQPLAFYMGDDSRGEYIYKFVSTAVWDTKDINGGYTAGDKYMNAGKLYVAKFNNDGSGQWIELAYGKNGLNESNTTYPFKSQADVVTFARLAADSVGATKMDRPEWCTVNPVNGEIYVTLTNNSNRGKDYATDAANPRNYTDLYAGTKEQKGNVNGHIIRFKETDDKTTAETFKWDIYLFGAEASMASNINLSGLTDNNDFSSPDGMWFDPRGVLWIETDDGAYTDVTNCMMLAALPGQIGDGGTLEHHHHHH”, the “soluble on expression in E. coli” value was “soluble”.
